From the RNAGym collection of RNA variant scans (doi:10.7554/elife.90254) come the findings set out here.

The labels stand for the following.
B1: OR4K15 (parent)
chain: GUUAACGGUCAUAGGCCAUGGAAACUAGGAGCACCAUUUCGCUGCCAGUGAAGAAAUGAACAAAGAAAAUCUGGGCCAGGCAGGCAUCAAAAGAAAUAGUCUUGCGCUCAACCAGAAAGUCUGUAAUCAUUUUAAGGGUA

This series covers variants of B1. Briefly: self-cleavage, relative activity (ratio to wild type); higher = more cleavage; in vitro, sequencing; the parent is a self-cleaving ribozyme.
For the variant U49C U87C, the self-cleavage was 1.58.
For A51U A60G the value was 0.92; for U49A A59G, 1.44; for A51U U124C, 0.77.
As for U49G A59G, the figure is 0.95; as for U49G A59U, 1.34.
For A51G G123A the value was 2.08; for U49C U108C, 0.01.
Consider A51G G104A, for which the self-cleavage was 0.03.
For U49G G83A the value was 0.47.
In the case of A51G U102C, the self-cleavage was 2.58.
For G50U U103C the value was 1.23; for U49A A51U, 1.63; for U49A A51C, 0.3.
Turning to A52G A56C, the self-cleavage was 0.99.
As to G50U G53A, the self-cleavage turned out to be 2.2.
For A51C A91G the value was 1.33; for A51U A111U, 0.06.
As for A51U A111G, the figure is 0.04; as for A51G A78U, 0.35; as for U49A A66U, 1.29.
As for U49A A66C, the figure is 1.48; as for A51C A60G, 2.31; as for A51U A59U, 0.5.
Turning to U49C U102A, the self-cleavage was determined as 0.53.
For U49C U102C, the self-cleavage came to 2.
As for U49C A90C, the figure is 0.97; as for U49C A98C, 1.84; as for U49C A98U, 2.55.
As for U49C A98G, the figure is 0.48; as for A51U A98U, 2.9.
For A51G A55G, the self-cleavage stood at 0.97.
Consider A51G A55U, for which the self-cleavage stood at 1.2.
For A51G A90G the value was 1.29; for U49A U131G, 1.06.
Take A51G C121U: the self-cleavage was 2.74.
As for U49C U130C, the figure is 0.77.
For U49A A96G the value was 1.12.
For A51U A114G the value was 0.19.
With A51G G80A, the self-cleavage was 0.36.
For U49A G137A the value was 1.92; for U49C A110G, 0.12.
For U49C G50U the value was 2.22.
For G50U G79A the value was 0.11; for U49C U72C, 0.3.
Consider A51U U122C, for which the self-cleavage was 1.26.
Turning to A51U U122A, the self-cleavage is 0.74.
As for A52G A116U, the figure is 0.12; as for G48U A118G, 1.08; as for A51G A52U, 1.49.
For A51G A52G the value was 1.46; for A52C U127A, 1.62; for U49A A62G, 0.7.
For A51G U87C the value was 0.86; for A51G U87A, 1.3.
Turning to A51G A59G, the self-cleavage was 0.89.
Take U49G U108A: the self-cleavage was 0.04.
For G50C C85U the value was 1.4.
As for G50U A125U, the self-cleavage stood at 2.34.
As to A52C G84U, the self-cleavage came out at 0.51.
With U49C A116G, the self-cleavage was 0.82.
Take A51U A56G: the self-cleavage worked out at 0.93.
As for G48U A96G, the figure is 1.28.
With A51G C109U, the self-cleavage turned out to be 0.4.
For U49C A52U the value was 1.38; for U49C A91G, 0.77.
Consider U49C A91U, for which the self-cleavage turned out to be 1.68.
For A51C U108C the value was 0.01.
As for U49G U130A, the self-cleavage was determined as 0.36.
For A51U A116G, the self-cleavage worked out at 0.37.
For U49A A52G the value was 0.96; for U49C U100A, 0.63.
For U49C U100G, the self-cleavage was 1.72.
As for U49C U100C, the figure is 2; as for U49G A56G, 1.64.
As for A51G U100G, the figure is 1.63; as for U49A A126G, 0.99; as for A52G A117U, 0.97.
As for A52C A62G, the figure is 0.91; as for U49A A94G, 1.11; as for A52C A89G, 1.02.
For the variant A51G A118U, the self-cleavage came to 0.39.
As for A51G A98U, the figure is 2.81; as for A51C A117G, 0.81; as for U49C A125G, 0.7.
Consider G50U A63G, for which the self-cleavage was found to be 0.92.
U49C U124A: the self-cleavage turned out to be 0.48.
In the case of U49A U100C, the self-cleavage is 2.15.
For U49A A55G the value was 1.53; for A51U G74A, 0.22.
Take U49A C107U: the self-cleavage is 0.04.
For A52G A94U the value was 2.01; for A52G A94G, 1.99; for U49A A68G, 0.95.
As for A51G A96G, the figure is 1.47.
For A51C G73C the value was 0; for A51G A89C, 1.6; for U49C U122C, 0.52.
On to A51U A96G, for which the self-cleavage stood at 1.32.
As for A52C U87C, the figure is 1.09.
For U49G A51G, the self-cleavage is 0.95.
Consider A52G A86G, for which the self-cleavage worked out at 1.41.
With U49C G80U, the self-cleavage was determined as 0.11.
For U49C G80A the value was 0.21.
For A51C A62G the value was 0.72.
As for A51G A62U, the figure is 1.49; as for A51C A68G, 1.2.
For the variant A51G G79U, the self-cleavage was found to be 0.1.
In the case of A51G G79A, the self-cleavage was found to be 0.23.
In the case of A51U A68G, the self-cleavage was determined as 1.24.
Turning to A51U A68C, the self-cleavage came to 1.91.
As for U49G A98G, the figure is 0.14; as for A51C A59G, 1.73.
As for U49G U131C, the figure is 1.56; as for G50U A56G, 1.63.
As for A51G A63U, the figure is 1.83; as for A51G A63G, 1.17.
Take U49C C85G: the self-cleavage worked out at 1.62.
For G50A A51G the value was 1.82.
Turning to A51C U102A, the self-cleavage is 0.84.
As for A51G A92U, the figure is 2.09; as for A51G A92G, 1.45; as for A51G U127G, 1.9.
With A52C A66G, the self-cleavage was 1.59.
As for A51G U139C, the self-cleavage is 1.69.
As for A52G A129U, the figure is 0.71; as for A52G A129G, 1.3.
As for A51G A82U, the figure is 0.25; as for U49A A89C, 0.85.
On to U49A U72C, for which the self-cleavage came to 0.16.
For U49A U72A the value was 0.36.
With G50A C71U, the self-cleavage is 0.42.
For A51G A125G the value was 0.97.
Regarding A51G A125U, the self-cleavage amounted to 1.72.
With A51C A94G, the self-cleavage worked out at 2.16.
For A52G A110C the value was 0.26.
As for A52G A110U, the self-cleavage is 1.17.
With U49A A125G, the self-cleavage was 0.82.
For A51U G93A, the self-cleavage was found to be 1.71.
On to A52G A82U, for which the self-cleavage was determined as 0.2.
As for A52G A82G, the figure is 0.19; as for A52C A55U, 1.72.
For G50A C113A the value was 0; for A51G A116G, 0.48; for A51G A116U, 0.05.
For A52G A114U the value was 0.14; for A52G A114G, 0.28.
Regarding U49A C105U, the self-cleavage came out at 0.15.
Consider A51U A94C, for which the self-cleavage turned out to be 0.55.
Regarding A51U A94U, the self-cleavage came out at 1.26.
As for U49C A69U, the figure is 2; as for U49C A69G, 1.2.
Consider U49C U70C, for which the self-cleavage stood at 0.59.
Take U49C A96U: the self-cleavage was 1.92.
As to U49C A96G, the self-cleavage came to 1.
For A52G A135G the value was 1.44.
As for U49G A62U, the figure is 0.74; as for U49C U97C, 1.29.
With A52C A63G, the self-cleavage is 2.56.
As to G50A A69G, the self-cleavage came out at 1.85.
Turning to A51G A134C, the self-cleavage was determined as 1.4.
For A51G A134G the value was 1.55.
As for U49C A55G, the figure is 1.22; as for A51G U120C, 0.85.
For the variant A51G A86G, the self-cleavage came to 1.46.
For A52G A118G the value was 1.21.
Take G50C A56G: the self-cleavage is 1.42.
